Results published in patent US20260217847A1 (NANJING REGENECORE BIOTECH, published 2026).

What was measured:
Assay in all cases: peptide ELISA on streptavidin plate, 2 µg/mL 2H7-hFc, anti-hFc HRP
[1] = target: T1, TfR1 peptide D1-helix1 (human)
T1 construct: Synthetic peptide, captured on a streptavidin-coated plate; also called peptide No. 1
T1 peptide: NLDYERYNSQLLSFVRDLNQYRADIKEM
Method: (§1) The peptide-antibody binding was identified using a standard enzyme-linked immunosorbent assay (ELISA). The steps were as follows: [0244] (1) The wells of an ELISA plate were coated with 100 μL of 2 μg/mL SA (streptavidin) protein at 4° C. overnight. […] (2) The wells of the ELISA plate were washed with PBST buffer. After adding 200 μL of 2% BSA, the plate was blocked at 37° C. for 1 h. […] (3) The peptide protein was diluted to 2 μg/mL, and a negative control and a positive control (AVI-tagged TfR1 protein) were included. Each experiment contained duplicate controls. […] (4) The wells of the ELISA plate were washed multiple times with PBST buffer. Then, 100 μL of the diluted peptide protein solution from step (3) was added into wells in duplicate, and along with the negative control wells, incubated at 37° C. for 1 h. [0248] (5) The wells of the ELISA plate were washed multiple times with PBST buffer. […] [0249] (6) The wells of the ELISA plate were washed multiple times with PBST buffer. Then, 100 μL of 2× anti-hFc HRP secondary antibody was added, and the plate was incubated at 37° C. for 1 h. [0250] (7) The wells of the ELISA plate were washed multiple times with PBST buffer. After adding 100 μL of TMB chromogenic solution, the reaction was carried out in the dark at room temperature for 30 min. [0251] (8) 100 μL of stop solution (1 mol/L HCl) was added to terminate the reaction. OD450 was measured using a microplate reader, and the readings were recorded.

[2] = target: T2, TfR1 peptide D1-helix2-helix3 (human)
T2 construct: Synthetic peptide, captured on a streptavidin-coated plate; also called peptide No. 4
T2 peptide: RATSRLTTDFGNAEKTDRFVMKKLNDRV
Method: as §1

[3] = target: T3, TfR1 peptide D3-helix1 (human)
T3 construct: Synthetic peptide, captured on a streptavidin-coated plate; also called peptide No. 5
T3 peptide: RLYWDDLKRKLSEKLDSTD
Method: as §1

[4] = target: T4, TfR1 peptide D3-helix2 (human)
T4 construct: Synthetic peptide, captured on a streptavidin-coated plate; also called peptide No. 6
T4 peptide: FTSTIKLLNENSYV
Method: as §1

[5] = target: T5, TfR1 peptide D3-helix3 (human)
T5 construct: Synthetic peptide, captured on a streptavidin-coated plate; also called peptide No. 7
T5 peptide: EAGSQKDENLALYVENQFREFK
Method: as §1

[6] = target: T6, TfR1 peptide D3-helix1-helix2 (human)
T6 construct: Synthetic peptide, captured on a streptavidin-coated plate; also called peptide No. 8
T6 peptide: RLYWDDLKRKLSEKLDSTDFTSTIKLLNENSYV
Method: as §1

[7] = target: T7, TfR1 peptide D3-helix2-helix3 (human)
T7 construct: Synthetic peptide, captured on a streptavidin-coated plate; also called peptide No. 9
T7 peptide: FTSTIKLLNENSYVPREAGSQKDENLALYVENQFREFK
Method: as §1

[8] = target: T8, TfR1 peptide D3-helix3-loop1 (human)
T8 construct: Synthetic peptide, captured on a streptavidin-coated plate; also called peptide No. 10
T8 peptide: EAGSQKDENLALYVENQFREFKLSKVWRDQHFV
Method: as §1

[9] = target: T9, TfR1 peptide D3-loop1 (human)
T9 construct: Synthetic peptide, captured on a streptavidin-coated plate; also called peptide No. 11
T9 peptide: LSKVWRDQHFV
Method: as §1

[10] = target: T10, TfR1 peptide D2-loop1 (human)
T10 construct: Synthetic peptide, captured on a streptavidin-coated plate; also called peptide No. 12
T10 peptide: GTKKDFEDLY
Method: as §1

[11] = target: T11, TfR1 peptide D2-loop1-K (human)
T11 construct: Synthetic peptide, captured on a streptavidin-coated plate; also called peptide No. 13
T11 peptide: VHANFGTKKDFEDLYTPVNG
Method: as §1

[12] = target: T12, TfR1 peptide D2-loop3-K (human)
T12 construct: Synthetic peptide, captured on a streptavidin-coated plate; also called peptide No. 14
T12 peptide: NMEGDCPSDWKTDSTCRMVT
Method: as §1

[13] = target: T13, TfR1 peptide D2-loop1-loop2 (human)
T13 construct: Synthetic peptide, captured on a streptavidin-coated plate; also called peptide No. 15
T13 peptide: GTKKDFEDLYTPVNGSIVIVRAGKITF
Method: as §1

[14] = target: T14, TfR1 peptide D1-helix1-helix2 (human)
T14 construct: Synthetic peptide, captured on a streptavidin-coated plate; also called peptide No. 18
T14 peptide: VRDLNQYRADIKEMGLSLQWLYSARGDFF
Method: as §1

[15] = target: T15, TfR1 peptide D1-helix3-helix4 (human)
T15 construct: Synthetic peptide, captured on a streptavidin-coated plate; also called peptide No. 19
T15 peptide: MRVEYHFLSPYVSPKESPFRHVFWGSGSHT
Method: as §1

[16] = target: T16, TfR1 peptide D2-loop2-K (human)
T16 construct: Synthetic peptide, captured on a streptavidin-coated plate; also called peptide No. 21
T16 peptide: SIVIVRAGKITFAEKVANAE
Method: as §1

OD450 [1]: 0.21
OD450 [2]: 0.19
OD450 [3]: 0.147
OD450 [4]: 0.17
OD450 [5]: 0.155
OD450 [6]: 0.274
OD450 [7]: 0.247
OD450 [8]: 0.229
OD450 [9]: 0.17
OD450 [10]: 0.176
OD450 [11]: 0.195
OD450 [12]: 0.217
OD450 [13]: 1.12
P/N [13]: 6.4
OD450 [14]: 0.977
P/N [14]: 3.5
OD450 [15]: 0.508
P/N [15]: 4.7
OD450 [16]: 0.16
B1: anti-humanized TfR1 single-domain antibody-Fc fusion antibody 2H7-hFC1 (Fc fusion)
chain (part 1 of 2): ESGGGLVQPGESLRLSCVASGSIWSIYTMGWYRQAPGKQRDFVASITGDSTRTLESVKDRFIISRDNTKNTLYLQMNSLKPEDTAVYYCQAITSLGEYWGQGTQVTVSS
notes: Expressed in 293F cells, Protein A purified; labelled with pHrodo iFL Green in the internalization assays; also called VHH-hFc; not shown: human IgG1 Fc: hinge, CH2 and CH3 regions, from vector RJK-V4-hFC1; limits and junction (multiple cloning site) not stat
